These results are taken from patent publication US6933142 (University of California, dated 2005).

For experiment [1], the target named is L-selectin on Jurkat cells (UniProt P14151). Kind of experiment: cell-based or functional assay.
Experiment [2] deals with CD34 on CHO/FTVII/C2GnT cells cotransfected with KSGal6ST and HEC-GlcNAc6ST cDNAs. Kind of experiment: flow cytometry; CHO/FTVII/C2GnT cells with CD34 (2 µg), 0.5 µg KSGal6ST and 1.0 µg HEC-GlcNAc6ST cDNA.
Experiment [3] addresses CD34 on CHO/FTVII/C2GnT cells cotransfected with KSGal6ST cDNA. Kind of experiment: flow cytometry; CHO/FTVII/C2GnT cells with CD34 (2 µg) and 1.0 µg KSGal6ST cDNA. (In flow cytometry, cells or beads pass a laser one at a time.)
Experiment [4] concerns the target CD34 on CHO/FTVII/C2GnT cells cotransfected with HEC-GlcNAc6ST cDNA. Description: flow cytometry; CHO/FTVII/C2GnT cells with CD34 (2 µg) and 1.5 µg HEC-GlcNAc6ST cDNA.
For experiment [5] the target is unchanged. Description: flow cytometry; CHO/FTVII/C2GnT cells with CD34 (2 µg) and 1 µg HEC-GlcNAc6ST cDNA.
For experiment [6], the target named is CD34 on CHO/FTVII/C2GnT cells, no sulfotransferase cDNA. Description: flow cytometry; CHO/FTVII/C2GnT cells with CD34 cDNA alone.
Experiment [7] concerns the target CD34 on CHO/FTVII/C2GnT cells cotransfected with KSGal6ST and HEC-GlcNAc6ST cDNAs. Kind of experiment: flow cytometry; CHO/FTVII/C2GnT cells with CD34 (2 µg), 1 µg KSGal6ST and 0.5 µg HEC-GlcNAc6ST cDNA.
Experiment [8] has as its target CD34 on CHO/FTVII/C2GnT cells cotransfected with KSGal6ST cDNA. Description: flow cytometry; CHO/FTVII/C2GnT cells with CD34 (2 µg) and 1.5 µg KSGal6ST cDNA.
The target of experiment [9] is CD34 on CHO/FTVII/C2GnT cells cotransfected with KSGal6ST and HEC-GlcNAc6ST cDNAs. Description: flow cytometry; CHO/FTVII/C2GnT cells with CD34 (2 µg), 0.5 µg KSGal6ST and 0.5 µg HEC-GlcNAc6ST cDNA.
Experiment [10] has as its target T1, rGlyCAM-1/IgG FT huGlcNAc6ST (human, UniProt Q02596 20-151 (mouse entry), limits assumed, glycans made in COS cells co-transfected with C2GnT, FucT-VII and huGlcNAc6ST (fucosylated, GlcNAc-6-sulfate)).
T1 sequence (looked up): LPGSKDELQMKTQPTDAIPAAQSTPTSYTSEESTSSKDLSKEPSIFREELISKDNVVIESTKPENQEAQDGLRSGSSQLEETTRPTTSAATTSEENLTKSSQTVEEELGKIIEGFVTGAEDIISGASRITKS
Kind of experiment: cell-based or functional assay.

In experiment [11] the target is T2, rGlyCAM-1/IgG FT HEC-GlcNAc6ST (human, UniProt Q02596 20-151 (mouse entry), limits assumed, glycans made in COS cells co-transfected with C2GnT, FucT-VII and HEC-GlcNAc6ST (fucosylated, GlcNAc-6-sulfate)).
T2 sequence (looked up): T1 sequence (looked up)
Kind of experiment: cell-based or functional assay.

In experiment [12] the target is T3, rGlyCAM-1/IgG FT KSGal6ST (human, UniProt Q02596 20-151 (mouse entry), limits assumed, glycans made in COS cells co-transfected with C2GnT, FucT-VII and KSGal6ST (fucosylated, Gal-6-sulfate)).
T3 sequence (looked up): T1 sequence (looked up)
Description: cell-based or functional assay.

In another experiment the target is T4, rGlyCAM-1/IgG (human, UniProt Q02596 20-151 (mouse entry), limits assumed, not fucosylated by FucT-VII, no sulfotransferase co-transfected).
T4 sequence (looked up): T1 sequence (looked up)
Kind of experiment: cell-based or functional assay.

Bounds are passed on as bounds.

Chain of CD34 on CHO/FTVII/C2GnT cells cotransfected with KSGal6ST and HEC-GlcNAc6ST cDNAs (P28906 32-385): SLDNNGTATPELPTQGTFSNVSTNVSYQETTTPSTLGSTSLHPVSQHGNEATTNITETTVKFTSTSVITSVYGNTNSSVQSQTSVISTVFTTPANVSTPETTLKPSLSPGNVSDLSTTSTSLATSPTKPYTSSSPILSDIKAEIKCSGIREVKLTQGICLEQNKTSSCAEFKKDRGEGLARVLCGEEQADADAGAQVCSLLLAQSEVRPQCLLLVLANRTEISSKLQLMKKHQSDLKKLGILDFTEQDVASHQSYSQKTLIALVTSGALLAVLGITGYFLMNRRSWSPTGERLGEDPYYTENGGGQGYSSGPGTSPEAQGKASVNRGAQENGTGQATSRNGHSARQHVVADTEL
Chain of CD34 on CHO/FTVII/C2GnT cells cotransfected with KSGal6ST cDNA (P28906 32-385): as above
Chain of CD34 on CHO/FTVII/C2GnT cells cotransfected with HEC-GlcNAc6ST cDNA (P28906 32-385): as above
Chain of CD34 on CHO/FTVII/C2GnT cells, no sulfotransferase cDNA (P28906 32-385): as above

In experiment [1], DREG56 (antibody) displayed a Rolling of Jurkat cells on rGlyCAM-1/IgG FT after treatment with 5 µg/ml DREG56 (rolling cells) of 0.

As to “L-selectin/IgM chimera (from UniProt P18337 39-332; P01871 106-453) (Fc fusion)”, the MFI (background subtracted) in experiment [2] was 830 MFI; in experiment [3], 364 MFI; in [4] it was 163 MFI; in experiment [5], 114 MFI; in experiment [7] it was 917 MFI; in experiment [8] it was 391 MFI. Further, in [9], the MFI (background subtracted) is 935 MFI. The same molecule returned an MFI (background signal) in experiment [6] of 139 MFI.

B1: L-selectin on Jurkat cells (receptor, UniProt P14151 39-372, looked up)
chain: WTYHYSEKPMNWQRARRFCRDNYTDLVAIQNKAEIEYLEKTLPFSRSYYWIGIRKIGGIWTWVGTNKSLTEEAENWGDGEPNNKKNKEDCVEIYIKRNKDAGKWNDDACHKLKAALCYTASCQPWSCSGHGECVEIINNYTCNCDVGYYGPQCQFVIQCEPLEAPELGTMDCTHPLGNFSFSSQCAFSCSEGTNLTGIEETTCGPFGNWSSPEPTCQVIQCEPLSAPDLGIMNCSHPLASFSFTSACTFICSEGTELIGKKKTICESSGIWSNPSPICQKLDKSFSMIKEGDYNPLFIPVAVMVTAFSGLAFIIWLARRLKKGKKSKRSMNDPY
On to B1, for which the “fraction of tethered cells relative to non-sulfated GlyCAM-1/IgG (FT)” value in experiment [10] is 2 fold; in experiment [11], 2 fold; in experiment [12], 6 fold.

B2: human HEC-GlcNAc6ST (enzyme)
chain: MLLPKKMKLLLFLVSQMAILALFFHMYSHNISSLSMKAQPERMHVLVLSSWRSGSSFVGQLFGQHPDVFYLMEPAWHVWMTFKQSTAWMLHMAVRDLIRAVFLCDMSVFDAYMEPGPRRQSSLFQWENSRALCSAPACDIIPQDEIIPRAHCRLLCSQQPFEVVEKACRSYSHVVLKEVRFFNLQSLYPLLKDPSLNLHIVHLVRDPRAVFRSRERTKGDLMIDSRIVMGQHEQKLKKEDQPYYVMQVICQSQLEIYKTIQSLPKALQERYLLVRYEDLARAPVAQTSRMYEFVGLEFLPHLQTWVHNITRGKGMGDHAFHTNARDALNVSQAWRWSLPYEKVSRLQKACGDAMNLLGYRHVRSEQEQRNLLLDLLSTWTVPEQIH
Turning to B2, the “incorporation of ^35S-SO4 into the GlyCAM-1 chimera in co-transfected COS cells” value with rGlyCAM-1/IgG is above 10 fold.
